# The nanobody polyreactivity screen of Harvey et al. (2022)
# Experiment: yeast display, Sf9 membrane polyspecificity reagent, FACS + sequencing; frameworks hold sequencing errors
# In short: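 Galactose-induced (36–48 hours) yeast carrying a synthetic nanobody display library were exposed to 10% biotinylated, detergent-solubilized Sf9 membrane reagent at 4 °C for 1 hour. FACS followed streptavidin microbead enrichment, using low and high (top ~1%) gates for expression (anti-HA) and reagent binding (streptavidin). Colony PCR, MiSeq 2 × 250 sequencing and CDR-length filtering followed. Labels for polyreactivity reflect the gate of origin.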
row,Sequence,polyreactivity (PSR sort gate)
1,QVQLVESGGGLVQAGGSLRLSCAASGRIFYYNAMGWYRQAPGKERELVAAITRTGGSTYYADSVKGRFTISRDNAKNTVYLQMNSLKPEDTAVYYCAAYGGRDIRFEYWGQGTQVTVSS,high polyreactivity
2,QVQLVESGGGLVQAGGSLRLSCAASGRIFYYNAMGWYRQAPGKERELVARISSGGSTNYADSVKGRFTISRDNAKNTVYLQMNSLKPEDTAVYYCAVAKGGLAWGVGRAGRYDFWGQGTQVTVSS,low polyreactivity
3,QVQLVESGGGLVQAGGSLRLSCAASGRIFYYNAMGWYRQSPGKEREFVAAISSGGGSTYYADSVKGRFTISRDNAKNTVYLQMNSLKPEDTAVYYCAAKRQFYRGPAQALSGYGYWGQGTQVTVSS,high polyreactivity
4,QVQLVESGGGLVQAGGSLRLSCAASGRIFYYNDMGWYRQAPGKERELVAAITWTDDGTYYADSVKGRFTISRDNAKNTVYLQMNSLKPEDTAVYYCAAESFYGFEYWGQGTQVTVSS,low polyreactivity
5,QVQLVESGGGLVQAGGSLRLSCAASGRIFYYNPMGWYRQAPAKERELVAAISWDGGSTYYADSVKGRFTISRDNAKNTFYLEMNCLKAEDTAVYYCAVDLYGTWYPTWFNYWGQGTQVTVSS,low polyreactivity
6,QVQLVESGGGLVQAGGSLRLSCAASGRIFYYYAMGGYRQAPWKERELVATISRAGITNYADSVKGRFTISRANAKNTVYLQMNSLKPEDTAVYYCAATFYPWRYHYEYWGQGTQVTVSS,high polyreactivity
7,QVQLVESGGGLVQAGGSLRLSCAASGRIFYYYAMGWSRPAPGTERELVASITFSGGRTFYADSVKGRFTISRDNAKKTVYLQMNSLKPEDTAVYYCAAVRWGRRSGGLVAEYDYWGQGTQVNVSS,high polyreactivity
8,QVQLVESGGGLVQAGGSLRLSCAASGRIFYYYAMGWYRQAPGKERELVAAISQRGGRTYYADSVKGRFTISRDNAKNTVYLQMNSLKPEDTAVYYCNDYPVYGRYTHYGYGHWGQGTQVTVSS,high polyreactivity
9,QVQLVESGGGLVQAGGSLRLSCAASGRIFYYYAMGWYRQAPGKERELVAAISTDVGGTFYAESVKGRFTISRANAKNTVYLQMNSLKPEDTAVDYCAVEYLWHGDEHDYWGQGTQVTVSS,high polyreactivity
10,QVQLVESGGGLVQAGGSLRLSCAASGRIFYYYAMGWYRQAPGKERELVADITSGGSTNYADSVKGRFTISRDNAKNTVYLQMNSLKPEDTAVYYCAAEYGDVYVWTYDYWGQGTQVTVSS,high polyreactivity
11,QVQLVESGGGLVQAGGSLRLSCAASGRIFYYYAMGWYRQAPGKERELVASINSVGTTTYADSVKGRFTISRDNAKNTVYLKMNSLKPEDTAVYYCARDTGCIYYDGYAYDYWGQGTEVTVSS,low polyreactivity
12,QVQLVESGGGLVQAGGSLRLSCAASGRIFYYYGMGWYRQAPGKERELVAAISNGGRTYYADSVKGRFTISRDNAKNTVYLQMNSLKPEDTAVYYCAALTRGRGGYDYWGLGTQVTVSS,high polyreactivity
13,QVQLVESGGGLVQAGGSLRLSCAASGRIFYYYVMGWYRQAPGKEREFVAAISWSASNTYYADSVKGRFTISRDNAKNTVYLQMNSLKPEDTAVYYCAADTLWLDWQGYDYWGQGTQVTVSS,low polyreactivity
14,QVQLVESGGGLVQAGGSLRLSCAASGRIGKYAMGWYRQAPGKERELVAAITSGGSTTYADSVKGRITISRDNAKNTVYLQMNSLNPEDTAVYYCKALRRARYTRKGYEYWGQGTQVTVSS,high polyreactivity
15,QVQLVESGGGLVQAGGSLRLSCAASGRIGTNAMGCYRQAPGKERELVAAISKRGGSTHYADSVKGRFTISRDNAKNTVYLQMNSMKPEDTAVYYCAASRAVGYDYWGQGTEVTVSS,high polyreactivity
16,QVQLVESGGGLVQAGGSLRLSCAASGRIGTYAMGWYRQAPGKERELVAGIRSGGSTYYADSVKGRFTISRDNAKNTVYLQLNSLKPEDTAVYYCAADRGYRGATGKYDSWGQGTQVTVSS,high polyreactivity
17,QVQLVESGGGLVQAGGSLRLSCAASGRIIARYTMGWYRQAPGKERELVAAITRGSSTYYADSVKGRFTISRDNALNTVFLHMNSQKPEDTAVNYCAKVYVVKSRYVYWGKGTQVTVSS,low polyreactivity
18,QVQLVESGGGLVQAGGSLRLSCAASGRIIDANVMGWYRQAPGKERELVAAISASAGSTSYADSVKGRFTISRDNAKNTVYLQMNSLKPEDTAVYYCAADPYQLWHYYYFGMDYWGQGTQVTVSS,low polyreactivity
19,QVQLVESGGGLVQAGGSLRLSCAASGRIIDTYAMGWYRQAPGKERELFASISRSDTSTSYADSVKGRFTISRDNAKNTVYLQMNCLKPEDTAVYYCNKDGVTVTNSKRYDYLGQGTQVTVSS,low polyreactivity
20,QVQLVESGGGLVQAGGSLRLSCAASGRIIFIYAMGWYRQPPGKERELVAGINRTGGSTYYADSVKGRFTISRDNAKNTVYLQMNSLKPEDTAVYYCAAVSYYASDYRYDYWGQGTQVTVSS,low polyreactivity
21,QVQLVESGGGLVQAGGSLRLSCAASGRIIGAYAMGWYRQAPGKERELVAAITSRGGNTYYADSVKGRITISRDNAKNTVYFQMNSLKPEDTAVYYCAAGVRAYNWCEYDYWGQGTQVTVSS,low polyreactivity
22,QVQLVESGGGLVQAGGSLRLSCAASGRIIGRYVRGWYRQAPGKERELVAAITRGGSTNYADSVKGRYTISRDNAKNTVYLQMNSLKPEDTAVYYCARAYSTVNRYSMYYWGQGTQVTVSS,high polyreactivity

row,Sequence,polyreactivity (PSR sort gate)
1,QVQLVESGGGLVQAGGSLRLSCAASGRIIGTNAMGWYRQAPGKEREMVAAITWRGGSTYYADSVKGRFTYSRDNAKNTVYLQKNSLKPEDTAVYYCNKDPPRFSGLDENDWGQGTQVTVSS,low polyreactivity
2,QVQLVESGGGLVQAGGSLRLSCAASGRIIGYNAMGWYRQAPGKERELVAAIDYTGGSTYYADSVKGRFTISLDNAKNTVYLQMNSLKPEDTAVYYCAKDRTTPWEEDDYWGQGTQVTVSS,low polyreactivity
3,QVQLVESGGGLVQAGGSLRLSCAASGRIIIEYAMGWYRQAPGKERELVASITSSGGRTTFADSVKGRFTISRDNAKNTVYLQMNSLKPEDTSVYYCAAKYYWYYSYSGIPLFDYWGQGTQVTVSS,low polyreactivity
4,QVQLVESGGGLVQAGGSLRLSCAASGRIIKTNAMGWYRQAPGKERELVAAISSSGGRTYYADSVKGRFTISRDNAKNTVYLQMNSLKPEDTAVYYCAAPSLVSFGYWGQGTQVTVSS,high polyreactivity
5,QVQLVESGGGLVQAGGSLRLSCAASGRIIKVYAMAWYRQAPGKDRELVAAISSRGGSTYYADSVKGRFTISRDNAKNTVYLQMNSVKPEDTAVYYCAALVTWLHPKGDYWGQGTQVTVSS,low polyreactivity
6,QVQLVESGGGLVQAGGSLRLSCAASGRIILVYAMGWYRQAPGKEREVVAAISSGGSTYYADSVKGRFTISRDTAKNPVYLQMNSLKPDDTAVYYSAARTAVGPIRSYWYDYWGQGTQVTVSS,low polyreactivity
7,QVQLVESGGGLVQAGGSLRLSCAASGRIIPLNAMGWYRPAPGKERELVAAISYDGCTYYADSVKGRFTISRDNAKNTVYLQMNSVKPEDTAVYYCAARGSYRGPYNVEYDSWGQGTQVTVSS,low polyreactivity
8,QVQLVESGGGLVQAGGSLRLSCAASGRIIPRNAMGWYRQEPGKERELVAGISRGGSTYYADSVKGRFTISRDNAKNSVYLQMNSLKPEDTAVYYCAAAYQKSPITPNMDYWGQGTQVTVSS,low polyreactivity
9,QVQLVESGGGLVQAGGSLRLSCAASGRIIRSYAMVWYRQAPGKERELVAAISYSGGSTYYADSVKGRFTISRDNAKNTVYLQMNSLKPEDTAVYYCAALPGERKYIYYGYDYWGQGTQVTVSS,high polyreactivity
10,QVQLVESGGGLVQAGGSLRLSCAASGRIISNYAMGWYRQAPGNERELVAAITVIGGRTYYADSVKGRFTISRDNAKNTVYLQMNSLKPEDTAVYYCNAEEYWYDGFYWLSYDYWGQGTQVTVSS,high polyreactivity
11,QVQLVESGGGLVQAGGSLRLSCAASGRIISYNDMGWYRPAPGKERELVAAISWGGGSTYYADSVKGRFTISRDNAKNTVYLQMNSLKPEDTAVYYCSKGWYRIKRNDYWGQGTQVTVSS,low polyreactivity
12,QVQLVESGGGLVQAGGSLRLSCAASGRIITRNVMGWYRQAPGKERELVAAISTSGGSTFYADSVKGRFTISRDNAKKTVYLQMNSLKPEDTAVYYCAKRRYGKLEFWGQGTQVTVSS,high polyreactivity
13,QVQLVESGGGLVQAGGSLRLSCAASGRIITYYAMGWYRQAPGKERELVAAISRTGGTTYYADSVKGRFTISRDNAKNTVYLQMNSLKPEDTAVYYWNAVKAPYLRYDYWGQGTQVTVSS,high polyreactivity
14,QVQLVESGGGLVQAGGSLRLSCAASGRIITYYAMGWYRQAPGKERELVAAITASGSRTYYADSVKGRFTISRDTAKNTVYLQMNSLKPEDTAVYYCAALSRLSPLSGSYYWGQGTQVTVSS,high polyreactivity
15,QVQLVESGGGLVQAGGSLRLSCAASGRIIWANTMGCYRQAPGKEREFVAAISWSTDSTYYADSVKGRFTISRDNAKNTVYFQMNSLKPEDTAVYYCNARAGYPWGVFYVTYVYWGQGTQVTVSS,low polyreactivity
16,QVQLVESGGGLVQAGGSLRLSCAASGRIIWSNTMGWYRQAPGKESELVAASSGRGGSTYYADSVKGRFTISRDNAKNTVYLQMNSLKPEDTAVYYCAAKPTRSRKIYEYWGQGTQVTVSS,low polyreactivity
17,QVQLVESGGGLVQAGGSLRLSCAASGRIIYAYAMGWYRQTPGKERELVAAISTRGGTTYYADSVKGRFTISRDNAKNTVYLQMNSLKPEDTAVYYCNALRVSRRVGYDSWGKGTQVTVSS,high polyreactivity
18,QVQLVESGGGLVQAGGSLRLSCAASGRIIYKNAMGWYRQAPGKETELVAAINSSGGSTYYGDSVKGRFTISRDNAKNTVYLQMNCLKPEDSAVYYCAAYDYGRFGKLNYWGQGSQVTVSS,low polyreactivity
19,QVQLVESGGGLVQAGGSLRLSCAASGRIIYRNAMGWSRQSPGKEREMVATITKNGGATYYADSVKGRFTISRDNAKNTVYLQMNTLKPEDTAVYYCATGSRGYKASPQWRDYWGQGTQVTVSS,high polyreactivity
20,QVQLVESGGGLVQAGGSLRLSCAASGRIIYTYALGWYRQAPGKERELVAAISWSGGSTYYADSVKGRFTISRDNAKNTVYLQMNSLKREDTAVYYCNAAYYGYENLSKRGYWGQGTQVTVSS,high polyreactivity
21,QVQLVESGGGLVQAGGSLRLSCAASGRIIYWYAMGWYRQAPGKERELVAAIDWSAASTYYADSVKGRFTISRDNAKNTVYLQMNSLKPEDTAVYYCNRRGRGGESYRTTPGALGYWGQGTQVTVSS,low polyreactivity
